Blank lines part the entries; values can stand above or below the binder they belong to.
Experiments:
Conditions in all cases: both partners purified
[1] = molecular target: T1, AnkB_R13-24 (C-terminal 12 ANK repeats of AnkB) (human, UniProt Q01484-2 430-827); experiment: crystal structure; one natural chain AnkB 430-873; the linker folds back on the repeats of the same chain; crystals grown at 16 °C
T1 construct: numbers count on: human 220 kDa AnkB NM_020977.3; also called AnkB C-terminal 12 repeats; source: E. coli BL21 (DE3), purified (Ni2+-NTA, size exclusion)
T1 sequence (looked up): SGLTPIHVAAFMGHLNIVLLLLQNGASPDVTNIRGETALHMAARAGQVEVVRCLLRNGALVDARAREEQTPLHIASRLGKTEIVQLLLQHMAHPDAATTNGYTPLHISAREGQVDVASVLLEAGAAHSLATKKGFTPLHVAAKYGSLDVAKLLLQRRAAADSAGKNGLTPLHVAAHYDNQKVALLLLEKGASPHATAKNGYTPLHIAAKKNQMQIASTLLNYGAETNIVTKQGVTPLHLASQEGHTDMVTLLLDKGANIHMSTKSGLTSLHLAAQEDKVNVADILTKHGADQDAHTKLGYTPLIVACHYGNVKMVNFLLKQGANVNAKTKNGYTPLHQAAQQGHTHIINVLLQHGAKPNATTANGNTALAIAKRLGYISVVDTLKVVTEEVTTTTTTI

[2] = molecular target: T2, AnkG 38–855 (AnkG MBD-AI-c protein; MBD + partial AI-c) (rat, UniProt O70511-1 38-855); experiment: ITC; VP-ITC MicroCal, 25 °C; proteins in 50 mM Tris-HCl pH 7.8, 1 mM DTT, 1 mM EDTA with 100 mM or 500 mM NaCl as required; who was titrated is not told
T2 construct: numbers count on: rat AnkG NM_001033984.1 (MBD-UPA); also called AnkG WT; source: E. coli BL21 (DE3), purified (Ni2+-NTA, size exclusion)
T2 sequence (looked up): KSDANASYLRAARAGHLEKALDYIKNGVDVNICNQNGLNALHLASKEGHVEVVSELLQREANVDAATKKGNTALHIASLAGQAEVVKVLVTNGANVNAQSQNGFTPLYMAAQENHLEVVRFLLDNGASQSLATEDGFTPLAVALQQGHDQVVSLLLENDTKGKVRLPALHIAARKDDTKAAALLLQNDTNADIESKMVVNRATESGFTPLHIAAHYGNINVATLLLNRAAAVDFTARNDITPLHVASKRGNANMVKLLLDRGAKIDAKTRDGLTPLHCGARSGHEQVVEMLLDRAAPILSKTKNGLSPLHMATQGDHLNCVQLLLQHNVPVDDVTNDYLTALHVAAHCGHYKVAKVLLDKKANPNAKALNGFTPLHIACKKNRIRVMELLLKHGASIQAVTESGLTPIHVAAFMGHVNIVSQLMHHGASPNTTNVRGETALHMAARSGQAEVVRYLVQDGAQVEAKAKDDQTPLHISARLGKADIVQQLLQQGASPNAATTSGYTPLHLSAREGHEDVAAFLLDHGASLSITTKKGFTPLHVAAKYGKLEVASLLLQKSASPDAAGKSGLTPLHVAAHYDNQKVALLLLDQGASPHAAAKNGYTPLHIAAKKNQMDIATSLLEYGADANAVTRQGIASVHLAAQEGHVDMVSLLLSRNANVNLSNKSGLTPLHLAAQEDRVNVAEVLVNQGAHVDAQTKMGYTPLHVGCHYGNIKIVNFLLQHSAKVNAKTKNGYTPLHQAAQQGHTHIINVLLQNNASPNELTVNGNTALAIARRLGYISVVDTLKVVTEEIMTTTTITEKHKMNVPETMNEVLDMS

[3] = molecular target: T3, AnkB_MBD (AnkB ANK repeats only, aa 28–827) (human, UniProt Q01484-2 28-827); experiment: fluorescence polarisation; PerkinElmer LS-55 fluorimeter with automated polarizer, 25 °C; one-site binding model
T3 construct: ankyrin-B (AnkB), human 220 kDa isoform, residues 28-827: the 24 ANK repeats (MBD), no linker; numbers count on: human 220 kDa AnkB NM_020977.3; Poor quality in 100 mM NaCl buffer; also called AnkB 28–827; source: E. coli BL21 (DE3), purified (Ni2+-NTA, size exclusion)
T3 sequence (looked up): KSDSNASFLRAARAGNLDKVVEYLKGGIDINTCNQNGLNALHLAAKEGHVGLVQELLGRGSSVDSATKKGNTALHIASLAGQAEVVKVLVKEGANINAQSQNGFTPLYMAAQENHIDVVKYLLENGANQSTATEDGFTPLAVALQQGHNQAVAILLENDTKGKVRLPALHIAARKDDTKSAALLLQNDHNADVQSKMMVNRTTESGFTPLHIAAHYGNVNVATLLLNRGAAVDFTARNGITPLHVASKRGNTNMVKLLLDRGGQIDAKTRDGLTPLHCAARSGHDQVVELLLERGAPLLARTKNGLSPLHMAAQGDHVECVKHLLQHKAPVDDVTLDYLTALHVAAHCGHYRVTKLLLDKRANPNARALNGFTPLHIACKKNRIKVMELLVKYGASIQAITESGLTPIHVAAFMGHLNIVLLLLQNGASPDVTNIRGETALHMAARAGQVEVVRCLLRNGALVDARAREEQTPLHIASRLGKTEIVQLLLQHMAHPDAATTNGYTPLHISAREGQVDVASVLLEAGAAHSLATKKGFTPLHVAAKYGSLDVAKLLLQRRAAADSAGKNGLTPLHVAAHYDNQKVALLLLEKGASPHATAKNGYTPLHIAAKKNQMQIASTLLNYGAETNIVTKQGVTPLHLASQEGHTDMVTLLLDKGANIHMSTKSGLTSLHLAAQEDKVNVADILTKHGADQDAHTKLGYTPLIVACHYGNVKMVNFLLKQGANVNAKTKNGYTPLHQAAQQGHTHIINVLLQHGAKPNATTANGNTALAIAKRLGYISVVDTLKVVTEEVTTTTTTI

[4] = molecular target: T4, AnkB 28–847 (MBD + partial AI-c) (human, UniProt Q01484-2 28-847); experiment: ITC; VP-ITC MicroCal, 25 °C; proteins in 50 mM Tris-HCl pH 7.8, 1 mM DTT, 1 mM EDTA with 100 mM or 500 mM NaCl as required; who was titrated is not told
T4 construct: ankyrin-B (AnkB), human 220 kDa isoform, residues 28-847: MBD and a short 20-residue linker; numbers count on: human 220 kDa AnkB NM_020977.3; also called extended MBD with a short 20-residue linker; source: E. coli BL21 (DE3), purified (Ni2+-NTA, size exclusion)
T4 sequence (looked up): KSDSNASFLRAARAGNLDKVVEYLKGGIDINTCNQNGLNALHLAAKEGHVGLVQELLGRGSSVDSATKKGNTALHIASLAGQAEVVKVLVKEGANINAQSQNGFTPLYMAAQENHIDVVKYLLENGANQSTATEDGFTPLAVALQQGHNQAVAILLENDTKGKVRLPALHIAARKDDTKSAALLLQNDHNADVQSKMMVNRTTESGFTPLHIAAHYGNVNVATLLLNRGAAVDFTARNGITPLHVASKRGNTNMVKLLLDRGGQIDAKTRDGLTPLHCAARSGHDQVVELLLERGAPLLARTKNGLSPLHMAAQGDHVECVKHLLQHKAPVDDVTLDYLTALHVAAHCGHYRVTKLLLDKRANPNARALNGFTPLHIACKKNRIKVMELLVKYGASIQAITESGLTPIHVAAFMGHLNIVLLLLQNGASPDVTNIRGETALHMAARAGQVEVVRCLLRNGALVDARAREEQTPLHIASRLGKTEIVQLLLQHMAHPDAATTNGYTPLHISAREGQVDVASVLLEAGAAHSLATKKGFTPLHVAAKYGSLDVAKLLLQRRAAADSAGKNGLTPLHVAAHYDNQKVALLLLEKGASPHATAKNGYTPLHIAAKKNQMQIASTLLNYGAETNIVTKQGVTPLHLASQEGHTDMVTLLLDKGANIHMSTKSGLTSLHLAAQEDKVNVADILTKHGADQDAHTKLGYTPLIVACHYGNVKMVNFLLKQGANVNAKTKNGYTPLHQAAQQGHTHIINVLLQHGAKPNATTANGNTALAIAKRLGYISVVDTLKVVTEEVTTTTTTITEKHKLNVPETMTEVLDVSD

B1: AnkB 46-residue linker after the ANK repeats (aa 828–873, holds AI-c), as crystallised (domain or fragment, human, UniProt Q01484-2 828-873, looked up)
chain: TEKHKLNVPETMTEVLDVSDEEGDDTMTGDGGEYLRPEDLKELGDD
notes: Thr828 to Asp847 defined in the map; numbers count on: human 220 kDa AnkB NM_020977.3; Contiguous with m23 on one natural chain; also called folded back linker; source: E. coli BL21 (DE3), purified (Ni2+-NTA, size exclusion)
binding result [1]: binds

B2: AnkG linker ΔAI-c (aa 861–920) (domain or fragment, rat, UniProt O70511-1 861-920, looked up)
chain: KASAPEKLSDGEYISDGEEGEDAITGDTDKYLGPQDLKELGDDSLPAEGYVGFSLGARSA
notes: ankyrin-G (AnkG), rat, linker residues 861-920, lacking AI-c; numbers count on: rat AnkG NM_001033984.1 (MBD-UPA); also called AnkG 861–920; shorter version of the linker; source: E. coli BL21 (DE3), purified (Ni2+-NTA, size exclusion)
binding result [2]: binds

B3: AnkB_AI-a peptide (aa 1623–1635) (peptide, UniProt Q01484-2 1623-1635, looked up)
peptide: HPPIVSEEDISVG
notes: ankyrin-B (AnkB), human 220 kDa isoform, 13-residue AI-a segment of the C-terminal tail, residues 1623-1635; numbers count on: human 220 kDa AnkB NM_020977.3; The text says a peptide encompassing the AI-a segment, so it may be longer than 1623-1635; The fluorescent label of the polarisation assay is not described here (protocol of Wang et al., 2014)
Kd [3]: ~7.3 µM

Now from value to binder:

binding result [2]: binds
B4: AnkG_AI-b (aa 875–903) (domain or fragment, rat, UniProt O70511-1 875-903, looked up)
chain: SDGEEGEDAITGDTDKYLGPQDLKELGDD
notes: numbers count on: rat AnkG NM_001033984.1 (MBD-UPA); source: E. coli BL21 (DE3), purified (Ni2+-NTA, size exclusion)

binding result [4]: binds
B5: AnkB_AI-b (aa 865–896) (domain or fragment, human, UniProt Q01484-2 865-896, looked up)
chain: EDLKELGDDSLPSSQFLDGMNYLRYSLEGGRS
notes: numbers count on: human 220 kDa AnkB NM_020977.3; also called 32-aa fragment; source: E. coli BL21 (DE3), purified (Ni2+-NTA, size exclusion)

Reference: publication PMC5779224, “Autoinhibition of ankyrin-B/G membrane target bindings by intrinsically disordered segments from the tail regions” (eLife, 2017)
